Assay results as given in article doi:10.1101/2025.06.02.657420, “Structure of the energy converting methyltransferase (Mtr) of Methanosarcina mazei in complex with an oxygen-stress responsive small protein” (bioRxiv, 2025).

Experiments:
[1] = target: T1, MtrE carrying a C-terminal TwinStrep-tag (Methanosarcina mazei, UniProt P80651 1-304); assay: cryo-EM structure; single-particle cryo-EM of the native Mtr complex purified from methanol-grown M. mazei through MtrE-TwinStrep (Strep-Tactin), LMNG-solubilised, 6 mg/mL with 1 mM CHAPSO; buffer 50 mM MOPS/NaOH pH 7.0, 10 mM MgCl2, 150 mM NaCl; C1 consensus map with local refinements of MtrA and MtrH; details: both partners purified
T1 construct: MtrE of the Mtr complex, Methanosarcina mazei DSM 3647, locus MM_1547; the mtrE gene was amplified from chromosomal DNA with primers from the start codon to the last codon before the tag; The plasmid was put into wild-type M. mazei, so untagged chromosomal MtrE may stand in the trimeric complex beside the tagged copy; also called MtrE-TS; TS-tagged MtrE; source: M. mazei DSM 3647, from shuttle …
T1 sequence (looked up): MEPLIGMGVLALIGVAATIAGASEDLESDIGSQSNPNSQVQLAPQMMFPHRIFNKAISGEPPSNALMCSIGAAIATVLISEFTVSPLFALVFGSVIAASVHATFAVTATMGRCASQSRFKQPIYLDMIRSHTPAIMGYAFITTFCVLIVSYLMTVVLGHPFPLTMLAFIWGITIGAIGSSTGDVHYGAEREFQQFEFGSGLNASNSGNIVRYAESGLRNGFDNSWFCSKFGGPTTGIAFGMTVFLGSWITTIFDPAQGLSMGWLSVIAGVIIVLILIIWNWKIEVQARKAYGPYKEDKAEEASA

[2] = target: the molecule itself; assay: as above

B1: MtrF, subunit F of the Mtr complex (natural protein, UniProt P80654 1-72, looked up)
chain: MAEEHEKGVPMVLAPQMGAIDATVESIRYRAQLIARNQKLDSGVAATGIIGFAAGFLFSLLMVIVLPVAVGL
notes: MtrF of the Mtr complex, Methanosarcina mazei DSM 3647 (Goe1); single-spanning stalk subunit; Three copies stand in the whole complex; also called chain F; helix F; source: endogenous, M. mazei membranes, LMNG-solubilised, co-purified with MtrE-TwinStrep on Strep-Tactin
B1: binds [1].

B2: MtrG, subunit G of the Mtr complex (natural protein, UniProt P80656 1-72, looked up)
chain: MDGKAPAAFVEPGEFNEVMKRLDQIDEKVEFVNSEVAQRIGKKVGRDIGILYGGVIGLLLFLIYVQISSMFM
notes: MtrG of the Mtr complex, Methanosarcina mazei DSM 3647 (Goe1); single-spanning stalk subunit; Three copies stand in the whole complex and form a three-helix bundle in the membrane plane; also called chain G; source: endogenous, M. mazei membranes, LMNG-solubilised, co-purified with MtrE-TwinStrep on Strep-Tactin
B2: binds [2].

B3: MtrB, subunit B of the Mtr complex (natural protein, UniProt P80655 1-108, looked up)
chain: MSIVRIAPEINLVMDTESGTVTQERKDSIQYSMEPVFERVDKLDAIADDLVNSLSPSKPLLNTWPGRENTSYIAGIYSNSFYGIIVGLAFSGLLALIIYITRLMGGVV
notes: MtrB of the Mtr complex, Methanosarcina mazei DSM 3647 (Goe1); single-spanning stalk subunit; Three copies stand in the whole complex; also called chain B; helix B; source: endogenous, M. mazei membranes, LMNG-solubilised, co-purified with MtrE-TwinStrep on Strep-Tactin
B3: binds [1].
